To fix the notation:
B1: PpIAA1 mut (dsDNA)
DNA 1: AGTAGTTGGAAAAAATTATAAATAATA
DNA 2: TATTATTTATAATTTTTTCCAACTACT
B2: PpERF61 mut (dsDNA)
DNA 1: ACAAGTTGAGAAAAAATACCCAATTGCT
DNA 2: AGCAATTGGGTATTTTTTCTCAACTTGT
B3: PpIAA1 probe (dsDNA)
DNA 1: AGTAGTTGGCACGTGTTATAAATAATA
DNA 2: TATTATTTATAACACGTGCCAACTACT
B4: PpERF61 probe (dsDNA)
DNA 1: ACAAGTTGAGCATGTGTACCCAATTGCT
DNA 2: AGCAATTGGGTACACATGCTCAACTTGT
B5: PpCHS probe (dsDNA)
DNA 1: AGAAAACCACGTGGGACAAAACCCTAGA
DNA 2: TCTAGGGTTTTGTCCCACGTGGTTTTCT
B6: PpHB.G7 probe (dsDNA)
DNA 1: GTGGCGTGAGAACACGTGTGGCCGTTACGC
DNA 2: GCGTAACGGCCACACGTGTTCTCACGCCAC
B7: PpXTH2 probe (dsDNA)
DNA 1: TGAGGCGCACATGGAACAAAATTAG
DNA 2: CTAATTTTGTTCCATGTGCGCCTCA
B8: PpPL1 probe (dsDNA)
DNA 1: CACACACTCACATGTTGCTAAATT
DNA 2: AATTTAGCAACATGTGAGTGTGTG
B9: PpPG2 probe (dsDNA)
DNA 1: GACAACAATTCCACATGTCCTATGTTTATTG
DNA 2: CAATAAACATAGGACATGTGGAATTGTTGTC
B10: PpCHI3 probe (PpCHI) (dsDNA)
DNA 1: CATCTACCCACGTGTTCAACAATTCAA
DNA 2: TTGAATTGTTGAACACGTGGGTAGATG
B11: PpPAL1 probe (dsDNA)
DNA 1: GGCAACCACATGGATGAATTGTTAT
DNA 2: ATAACAATTCATCCATGTGGTTGCC
B12: Pp4CL probe (dsDNA)
DNA 1: GCATGGGACACACGTGTTCAAATACTTGTATGA
DNA 2: TCATACAAGTATTTGAACACGTGTGTCCCATGC
B13: PpHB.G7 mut (dsDNA)
DNA 1: GTGGCGTGAGAAAAAAAATGGCCGTTACGC
DNA 2: GCGTAACGGCCATTTTTTTTCTCACGCCAC

One data set deals with T1, PpMYC2.1 (Prunus persica, UniProt A0A251P353 1-687). In words: competition; mutant competitor vs N5; failed to compete effectively; Chemiluminescent EMSA Kit (Beyotime); buffer, salt, pH and temperature not stated. As to conditions: protein: recombinant; tags: His, SUMO (pET-SUMO); chain copies: 2; blunt. On the technique in general: A gel shift assay detects complexes by their altered migration in electrophoresis.
T1 sequence (A0A251P353 entry or part of it): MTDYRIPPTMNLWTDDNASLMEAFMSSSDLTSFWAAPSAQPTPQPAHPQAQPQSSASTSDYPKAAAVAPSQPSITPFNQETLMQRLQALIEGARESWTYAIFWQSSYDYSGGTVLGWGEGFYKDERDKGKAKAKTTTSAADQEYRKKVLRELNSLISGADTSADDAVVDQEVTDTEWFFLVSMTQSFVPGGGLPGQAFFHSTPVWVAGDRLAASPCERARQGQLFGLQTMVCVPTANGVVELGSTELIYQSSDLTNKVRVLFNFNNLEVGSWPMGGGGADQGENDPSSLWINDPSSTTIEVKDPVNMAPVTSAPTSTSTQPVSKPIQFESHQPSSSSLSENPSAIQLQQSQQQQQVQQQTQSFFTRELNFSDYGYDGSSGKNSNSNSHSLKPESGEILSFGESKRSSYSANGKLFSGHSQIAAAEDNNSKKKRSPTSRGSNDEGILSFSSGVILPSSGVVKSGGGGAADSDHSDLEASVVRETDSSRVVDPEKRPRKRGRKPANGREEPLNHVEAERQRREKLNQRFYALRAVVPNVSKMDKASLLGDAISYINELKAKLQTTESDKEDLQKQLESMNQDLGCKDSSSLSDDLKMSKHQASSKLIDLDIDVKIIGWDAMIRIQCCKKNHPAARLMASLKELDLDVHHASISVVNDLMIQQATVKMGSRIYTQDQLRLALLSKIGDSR
Regarding B1, the binding result is “no binding”.

For another data set, the target named is T1, PpMYC2.1. In words: competition; mutant competitor vs N1; failed to compete effectively; Chemiluminescent EMSA Kit (Beyotime); buffer, salt, pH and temperature not stated. As to conditions: protein: recombinant; tags: His, SUMO (pET-SUMO); chain copies: 2; blunt.
In the case of B2, the binding result is “no binding”.

The next data set addresses T1, PpMYC2.1. In words: EMSA; Chemiluminescent EMSA Kit (Beyotime); buffer, salt, pH and temperature not stated. As to conditions: protein: recombinant; tags: His, SUMO (pET-SUMO); chain copies: 2; label: 3' biotin; blunt.
On to B3, for which the binding result was “binds”. On the same count and under the same terms, next, B4: “binds”; B5: “binds”.

With B6, the binding result is given as “binds”. Same read-out and setting: next, B7: “binds”. On the same count and under the same terms, to B8 belongs “binds”; to B9, “binds”; to B10, “binds”. The same measure, in the same setting: to B11 belongs “binds”. Turning to B12, the binding result is “binds”.

In another data set the target is T1, PpMYC2.1. Kind of data set: competition; mutant competitor vs N3; failed to compete effectively; Chemiluminescent EMSA Kit (Beyotime); buffer, salt, pH and temperature not stated. As to conditions: protein: recombinant; tags: His, SUMO (pET-SUMO); chain copies: 2; blunt.
As for B13, the binding result is “no binding”.

Values taken from article PMC12923268, “JAZ2/JAZ4-MYC2.1 module mediates MeJA-induced alleviation of chilling injury in peach fruit (Prunus persica)”.
